Assay results from the nanobody polyreactivity screen of Harvey et al. (2022).

Test: yeast display, Sf9 membrane polyspecificity reagent, FACS + sequencing; frameworks hold sequencing errors
In short: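 In a synthetic yeast display library (Saccharomyces cerevisiae BJ5465), nanobody expression was induced with galactose for 36–48 hours. FACS gates were set low and high (top ~1%) using anti-HA fluorescence for expression and streptavidin fluorescence for binding of the Sf9 membrane reagent. Each polyreactivity label is drawn from the gate of origin.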

Sequence | polyreactivity (PSR sort gate)
QVQLVESGGGLVQAGGSLRLSCAASGRIFPYYTMGWYRQAPGKERELVATITTGGSTNYADSVKGRFTISRDNAENTVYLQMNSLKPEDTAVYYCNNDGVVVGRFTGPQEYDYWGQGTQVTVSS | low polyreactivity
QVQLVESGGGLVQAGGSLRLSCAASGRIFQANAKGWYRQAPGKERELVAAINSGDSTYYADSVKGRFTISRDNAKNTVYLQMNSLKPEDTAVYYCAADAVFQYYTYYYWGQGTQVTVSS | low polyreactivity
QVQLVESGGGLVQAGGSLRLSCAASGRIFQAYAMGWYRQAPGKERELVAAISRSGGGTYYADSVKGRFTISRDNAKNTVYLQMNCLKPEDTAVYYCNARGSTARGRGYWGQGTQVTVSS | high polyreactivity
QVQLVESGGGLVQAGGSLRLSCAASGRIFQDYAMGWYRQAPGKERELVAAITWSGGRTYYADSVKGRFTISRDNAKNTVYLQMNSLKPEDTAVYYCNRLTQSRLYYGPREYYYWGQGTQVTVSS | high polyreactivity
QVQLVESGGGLVQAGGSLRLSCAASGRIFQDYAMGWYRQPPGKERELVAAISSSGVRTYYADSVKGRFTISRDNAKNTVYVQMNSLKPEDTAVYYCATGYIFRYRQSAYVYWGQGTQVTVSS | high polyreactivity
QVQLVESGGGLVQAGGSLRLSCAASGRIFQGFAMGGYRQAPGKERELVAAISSGGRTYYADSVKGRFTISRDNAKNTVYLQMNSLKPEDTAVYYCAARSPKANGLQRFDYWGQGSQVTVSS | high polyreactivity
QVQLVESGGGLVQAGGSLRLSCAASGRIFQGYAMGWYRQAPGKERELVAAISYRGASTYYADSVKGRFTISRDNAKNTVYLQMNSLKPEDTAVYYCAKVTPTSTRGHDYWGQGTQVTVSS | low polyreactivity
QVQLVESGGGLVQAGGSLRLSCAASGRIFQGYAMGWYRQAPGKERELVARITSGSNTNYADSVKGRFTISRDNAKNTVYLQMNSLKPEDTAVYYCAKEPVGSVRYGRFQQDDYWGQGTQVTVSS | low polyreactivity
QVQLVESGGGLVQAGGSLRLSCAASGRIFQGYAMGWYRQAPGKERELVASIRTGGTTNYADSVKGRFTISRDNAKNTVYLQMTRLKPEDNAVYYCNSGYYSYYGRYYYWGQGTQVTVSS | high polyreactivity
QVQLVESGGGLVQAGGSLRLSCAASGRIFQGYVMGWYRQAPGKERELVAAITTGGSTYYADSVKGRFTISRDNAKNTVYLQMNSLKPEDTAVYYCAAKPTRSRKIYEYWGQGTQVTVSS | low polyreactivity
QVQLVESGGGLVQAGGSLRLSCAASGRIFQGYVMGWYRQAPGKERELVAAITTGGSTYYADSVKGRFTISRDNAKNTVYLQMNSLKPEDTAVYYCYAVVYVSGYNPYIFGYWGQGTQVTVSS | low polyreactivity
QVQLVESGGGLVQAGGSLRLSCAASGRIFQKNAMGWYRQAAGKERELVAAISGSGSTTNYADSVKGRFTISRDNAKNTVYLQMNSLKPEDTAVYYCATGKRGVSGRGYRYVDYDYWGQGTQVTVSS | high polyreactivity
QVQLVESGGGLVQAGGSLRLSCAASGRIFQKYAMGWYRQAPGKERELVAAITTSGGSTYYADSVKGRFTISRDNAKNTVYLQMNSLKPEDTAVYYCAAKSTLSKEGYWGQGTHVTVSS | high polyreactivity
QVQLVESGGGLVQAGGSLRLSCAASGRIFQLYTMGWYRQAPGKERELVAAITSGTSTSYADSVKGRFTISRDNAKNTVYLQMNSLKPEDTAVYYCNKGSVSYSSVFVPYESDYWGQGTQVTVSS | low polyreactivity
QVQLVESGGGLVQAGGSLRLSCAASGRIFQPNAMGWYRQATGNERELVAAISSSGGRTYYADSVKGRFTISRDNAKNTVYLQMNSLKPEDTAVYYCNAGGYRYRSYDYWGQGNQVTVSS | high polyreactivity
QVQLVESGGGLVQAGGSLRLSCAASGRIFQPYAMGWYRPAPGKERELVAVITSGGSTNYADSVKGRFTISRDNAKNTVYLQMNSLKPEDTAVYYCNAVRTVNDYHYDYWGQGTQVTVSS | high polyreactivity
QVQLVESGGGLVQAGGSLRLSCAASGRIFQPYAMGWYRQAPGKERELVAAITRRAGSTYYADSVKGRFTISRDNAKNTVYLQMNSLKPEDTAVYYCAARGLYWAYEMEYWGQGTQVTVSS | low polyreactivity
QVQLVESGGGLVQAGGSLRLSCAASGRIFQRYAMGWYRQAPGKERELVAVITKRGGNTYYADSVKGRFTISRDNAKNTVYLQMNSLKPEDTAVYYCATRSGRSTGDYWGQGTQVTVSS | high polyreactivity
QVQLVESGGGLVQAGGSLRLSCAASGRIFQSNAMGWYRQAPGKEREFVARISKRGGSTYYADSVKGRFTISRDNAKNTVYLQMNSLKPEDTAVYYCAVRRHDRGTMGYWGQGTQVTVSS | low polyreactivity
QVQLVESGGGLVQAGGSLRLSCAASGRIFQSNAMGWYRQAPGKERELVAAISYSGGSTYYADSVKGRFTISRDNAKNTVYLQMNSLKPEDTAVYYCAADIFSPAFDYWGQGTQVTVSS | low polyreactivity
QVQLVESGGGLVQAGGSLRLSCAASGRIFQSYAMGWYRQAPGKERELVAGINSDTSTNYADSVKGRFTISRDNAKNTVYLQMNSLKPEDTAVYYCNAGWDTYYWQSTEFDYWGQGSQVTVSS | low polyreactivity
QVQLVESGGGLVQAGGSLRLSCAASGRIFQTYAMGWYRQAPGKERELVAAISSRGRTYYADSVKGRFTISRDNAKNTVYLQMNSLKPEDTAVYYCAARDWSHRPRGYDYWGQGTQVTVSS | high polyreactivity

Sequence | polyreactivity (PSR sort gate)
QVQLVESGGGLVQAGGSLRLSCAASGRIFQTYTMGWYRQAPGKERELVARITGGDSTYYADSVKGRFTISRDNAKITVYLQMNSLKPEDTAVYYCAAEVWSYWGTFNYWGQGTQVTVSS | low polyreactivity
QVQLVESGGGLVQAGGSLRLSCAASGRIFQVNAMGWYRQAPGKERELVAAITYSGGTTYYADSVKGRFTISRDNAKNNVYLQMNRLKPEYTAVYYCAAEGYGAQGDPWQYGYEYWGQGTKVTVSS | low polyreactivity
QVQLVESGGGLVQAGGSLRLSCAASGRIFQWNAMGWYRQAPGKERELVAAITYSGSSTNYADSVKGRFTISRDNAKNTVYLQMNSLKPEDTAVFYCNRDFYQYLSYFWHYGYWGQGTQVTVSS | low polyreactivity
QVQLVESGGGLVQAGGSLRLSCAASGRIFQYNAMGWYRQAPGKDRELVAAIRRGGGSTYYADSVKGRFTISRDNAKNTVYLQMNSLKPEDTAVYYCAARRKRVSFYPEYDYWGQGTQVTVSS | low polyreactivity
QVQLVESGGGLVQAGGSLRLSCAASGRIFQYNAMGWYRQAPGKERALVAAIRRGGGSTYYADSVKGRFTISRDNAKNTVYLQMNSLKPEDTAVYYCAARRKRVSFYPEYDYWGQGTQVTVSS | low polyreactivity
QVQLVESGGGLVQAGGSLRLSCAASGRIFQYNTMGWYRQAPGKERELVARISWSGGSTRYADSVKGRFTISRDNAKNTVDLQMNSLKPEETEVYYCAVQEAYRYAHAYYYWGQGTQVTVSS | high polyreactivity
QVQLVESGGGLVQAGGSLRLSCAASGRIFQYYAMGWYRQAPGKERELVASISGRGGRTYYADSVKGRLTISRDNAKNTVYLQMNSLKPEDTAVYYCNAVFSTIRYIRSYNYWGQGTQVTVSS | high polyreactivity
QVQLVESGGGLVQAGGSLRLSCAASGRIFQYYAMGWYRQAPGKERELVATITSTGSTYYADSVKGRFTISRDNAKNTVYLQMNSLKPEDTAVYYCNADPWGIYETFGDHDYWGQGTQVTVSS | low polyreactivity
QVQLVESGGGLVQAGGSLRLSCAASGRIFQYYTIGWYRQATGKERELVAAIRSSGGITYYADSVKGRFTISRDNAKYTVYLQMNSLKPEDTAVYYCAARWYRSKYDYWGQGTQVTVSS | high polyreactivity
QVQLVESGGGLVQAGGSLRLSCAASGRIFQYYTMGWNRQAPGKERELVAAITYSGGDTRYADSVKGRFTISRDTAKNTVYLQMNSLKPEDTAVYYCAADYFDQYQYGVWTYGYWGQGTQVTVSS | low polyreactivity
QVQLVESGGGLVQAGGSLRLSCAASGRIFQYYTMGWSRQAPGKERELVAAITRSGGSTYYADSVKGRFTISRDNAKNTVYLQMNSLKPEDTAVYYFNADTRVKLPWYYTFDYLGQGTQVTVSS | low polyreactivity
QVQLVESGGGLVQAGGSLRLSCAASGRIFQYYVMGRYRQAPGKEREWVAAMTSGGGTKYADSVKGRFTISRDNEKNTVYLQMNSLKPEDTAVYYCAAAWFDQYSRYDYWGQGSQVTVSS | low polyreactivity
QVQLVESGGGLVQAGGSLRLSCAASGRIFRANTMGWYRQAPGKERELVAVITASGGSTYYADSVKGRFTISRDNAKNTVYLQMNSLKPEDTAVYYCNVRWSPAGTGLLDYWGQGTQVTVSS | high polyreactivity
QVQLVESGGGLVQAGGSLRLSCAASGRIFRAYAMGWYRQAPGKERELVAAISSRGGSTYYADSVKGRFTISRDNAKNTVYLQMNSLKPEDTAVYYCNVDTPFREGSYDYWGQGTQVSVSS | high polyreactivity
QVQLVESGGGLVQAGGSLRLSCAASGRIFRAYAMGWYRQAPGKERELVAAISYRGGSTYYADSVKGRFTISRDNAKNTVYLQMNSLKPEDTAVYYCAADSDRSVWIYGYSGQGTQVTVSS | low polyreactivity
QVQLVESGGGLVQAGGSLRLSCAASGRIFRAYAMGWYRQAPGKERELVAAITSGVSTNYADSVKGRFTISRDNAKNTVYLQMNSLKPEDTAVYYCAADIYVIYEYWGQGTQVTVSS | low polyreactivity
QVQLVESGGGLVQAGGSLRLSCAASGRIFRDYDMGWYRKAPGKEWELVAAITYRGGSTYYADSVKGRFTISRDNAKNTVYLQINSLKPEDTAVYYCAAGSRSPHWYTRELDYWVQGTQVTVSS | low polyreactivity
QVQLVESGGGLVQAGGSLRLSCAASGRIFRFNAMGWYRQAPGKERELVAAITGSGGTTFYADSVKGRFTLSRDNAKNTVYLQMNSLKPEDTAVYYCNTLGNWRPVYNQPRYEYWGQGTQVTVSS | high polyreactivity
QVQLVESGGGLVQAGGSLRLSCAASGRIFRFNAMGWYRQAPGKERELVAAITSGVRTNYADSVKGRFTISRDNAKNTVYLQMNSLKPEDTAVYYCAASRHYPGYRRYDYWGQGTQVTVSS | high polyreactivity
QVQLVESGGGLVQAGGSLRLSCAASGRIFRFYAMGWYRKAPGKERELVAAITRNVGSTFYADSVKGRFTISRDNAKKTVYLQMNSLKPADTAVYYCAAESDYYYRYTFDYWGQGTQVTVSS | low polyreactivity
QVQLVESGGGLVQAGGSLRLSCAASGRIFRFYAMGWYRQAPGKERELVADISRRGGSTYYADSVKGRFTISRDNAKNTVYLQMNSLKPEDTAVYYCNARWYRTGSTYHEDYWGQGTQVTVSS | high polyreactivity
